Data from patent US20160193299A1, “MODIFIED NUCLEOSIDE, NUCLEOTIDE, AND NUCLEIC ACID COMPOSITIONS” (Moderna Therapeutics, Inc., priority 2011, published 2016).

How the values were obtained:
human G-CSF = experiment: Example 42A saline formulation IM, serum human G-CSF; format: in vivo, mice; conditions: G-CSF group: human G-CSF in mouse serum, IM 100 ug, 13 hours
Experimental: The mice were bled at 13 hours after the injection to determine the concentration of the human polypeptide in serum in pg/mL (G-CSF groups measured human G-CSF in mouse serum and EPO groups measured human EPO in mouse serum).

HEK293 = experiment: Example 46B percent-modified G-CSF mRNA transfected in HEK293, secreted G-CSF ELISA; format: cell-based, human
Experimental: Human embryonic kidney epithelial (HEK293) cells were seeded on 96-well plates at a density of 30,000 cells per well in 100 ul cell culture medium. 250 ng of modified G-CSF mRNA (SEQ ID NO: 6; polyA tail of approximately 160 nucleotides not shown in sequence; 5′cap, Cap1) formulated with RNAiMAX™ (Invitrogen, Carlsbad, Calif.) was added to a well. The G-CSF was completely modified with 5mC and pseudoU (100% modification), not modified with 5mC and pseudoU (0% modification) or was partially modified with 5mC and pseudoU so the mRNA would contain 75% modification, 50% modification or 25% modification. Control samples (AK 5/2, mCherry (SEQ ID NO: 7; polyA tail of approximately 160 nucleotides not shown in sequence; 5′cap, Cap1; fully modified 5mC and pseudoU) and untreated) were also analyzed. […] The supernatants were harvested after 16 hours and the secreted G-CSF protein was analyzed by ELISA.

G-CSF = experiment: Example 16 lipid nanoparticle in vivo study, serum G-CSF ELISA; parameters: species or system mice; conditions: for G-CSF Serum Concentration 8-12 hours after administration: IV (LNP); for G-CSF Protein Expression, Conc: mice IV LNP, serum 8 hrs
Experimental: Mice were sacrificed at 8 hrs after dosing. […] Protein expression was determined by ELISA.
As used in Table 30, the symbol “˜” means about.

neutrophils = experiment: Example 22 non-human primate study, neutrophil count; format: in vivo, cynomolgus monkey
Experimental: LNP formulations, shown in Table 31 (above), were administered to non-human primates (NHP) (cynomolgus monkey) (n=2) as intravenous injection (IV). The NHP were administered a single modified mRNA IV dose of 0.5 mg/kg, 0.05 mg/kg or 0.005 mg/kg of G-CSF or EPO in a dose volume of 0.5 mL/kg. The NHPs were bled before dosing with the modified mRNA LNP formulations to determine protein expression in the serum and a baseline complete blood count. After administration with the G-CSF modified mRNA formulation the NHP were bled at 8, 24, 48 and 72 hours to determined protein expression. After administration with the EPO modified mRNA formulation the NHP were bled at 8, 24, 48, 72 hours and 7 days to determined protein expression.
Samples collected from the NHPs after they were administered with G-CSF or EPO modified mRNA formulations were analyzed by ELISA to determine protein expression. Neutrophil and reticulocyte count was also determined pre-dose, 24 hours, 3 days, 7 days, 14 days and 18 days after administration of the modified G-CSF or EPO formulation.

IFN-alpha = experiment: Example 45 cytokine study in PBMC, IFN-alpha ELISA; format: cell-based, human; conditions: human PBMC, Lipofectamine 2000
Experimental: The plates were then incubated at 37 C.
Each condition was done in duplicate.
Shown in Tables 69 and 70 are the average from 2 separate PBMC donors of the G-CSF and IFN-alpha production over time as measured by specific ELISA.

B1: G-CSF: human G-CSF mRNA SEQ ID NO: 6, polyA ~160 nt, Cap1, fully modified with 5-methylcytosine and pseudouridine (nucleic acid, listed as Homo sapiens)
chain: GGGAAAUAAGAGAGAAAAGAAGAGUAAGAAGAAAUAUAAGAGCCACCAUGGCCGGUCCCGCGACCCAAAGCCCCAUGAAACUUAUGGCCCUGCAGUUGCUGCUUUGGCACUCGGCCCUCUGGACAGUCCAAGAAGCGACUCCUCUCGGACCUGCCUCAUCGUUGCCGCAGUCAUUCCUUUUGAAGUGUCUGGAGCAGGUGCGAAAGAUUCAGGGCGAUGGAGCCGCACUCCAAGAGAAGCUCUGCGCGACAUACAAACUUUGCCAUCCCGAGGAGCUCGUACUGCUCGGGCACAGCUUGGGGAUUCCCUGGGCUCCUCUCUCGUCCUGUCCGUCGCAGGCUUUGCAGUUGGCAGGGUGCCUUUCCCAGCUCCACUCCGGUUUGUUCUUGUAUCAGGGACUGCUGCAAGCCCUUGAGGGAAUCUCGCCAGAAUUGGGCCCGACGCUGGACACGUUGCAGCUCGACGUGGCGGAUUUCGCAACAACCAUCUGGCAGCAGAUGGAGGAACUGGGGAUGGCACCCGCGCUGCAGCCCACGCAGGGGGCAAUGCCGGCCUUUGCGUCCGCGUUUCAGCGCAGGGCGGGUGGAGUCCUCGUAGCGAGCCACCUUCAAUCAUUUUUGGAAGUCUCGUACCGGGUGCUGAGACAUCUUGCGCAGCCGUGAAGCGCUGCCUUCUGCGGGGCUUGCCUUCUGGCCAUGCCCUUCUUCUCUCCCUUGCACCUGUACCUCUUGGUCUUUGAAUAAAGCCUGAGUAGGAAG
modifications: polyA ~160, Cap1, 5mC/pseudouridine modified
B1 was tested, and the “Average Protein Product” value (human G-CSF) was 19.8 Pg/mL, serum, the half-life (HEK293) was 8 to 10 h and the “G-CSF Serum Concentration 8-12 hours after administration” value (“G-CSF Serum Concentration 8-12 hours” for short) (G-CSF; 1 ug) was ~20,000 pg/ml. For the same molecule, the “G-CSF Serum Concentration 8-12 hours” value (G-CSF; 10 ug) was ~1,000,000 pg/ml, the “G-CSF Serum Concentration 8-12 hours” value (G-CSF; 100 ug) was ~5,000,000 pg/ml and the “G-CSF Protein Expression, Conc” value (G-CSF; 10 ug) was 1204.82 ng/mL. For the same molecule, the “G-CSF Protein Expression, Conc” value (G-CSF; 100 ug) was 4722.20 ng/mL, the Neutrophils (neutrophils; Female NHP, 0.005 mg/kg, 14/18 days) was 2.28 10^9/L and the Neutrophils (neutrophils; Female NHP, 0.005 mg/kg, 24 hours) was 8.6 10^9/L. For the same molecule, the Neutrophils (neutrophils; Female NHP, 0.005 mg/kg, 3 days) was 1.78 10^9/L, the Neutrophils (neutrophils; Female NHP, 0.005 mg/kg, 7 days) was 2.27 10^9/L and the Neutrophils (neutrophils; Female NHP, 0.005 mg/kg, Pre-dose) was 2.54 10^9/L. The Neutrophils (neutrophils; Female NHP, 0.05 mg/kg, 14/18 days) was 1.82 10^9/L, the Neutrophils (neutrophils; Female NHP, 0.05 mg/kg, 24 hours) was 29.91 10^9/L and the Neutrophils (neutrophils; Female NHP, 0.05 mg/kg, 3 days) was 10.77 10^9/L. For the same molecule, the Neutrophils (neutrophils; Female NHP, 0.05 mg/kg, 7 days) was 3.8 10^9/L, the Neutrophils (neutrophils; Female NHP, 0.05 mg/kg, Pre-dose) was 3.05 10^9/L and the Neutrophils (neutrophils; Female NHP, 0.5 mg/kg, 14/18 days) was 1.98 10^9/L. The Neutrophils (neutrophils; Female NHP, 0.5 mg/kg, 24 hours) was 13.96 10^9/L, the Neutrophils (neutrophils; Female NHP, 0.5 mg/kg, 3 days) was 13.7 10^9/L and the Neutrophils (neutrophils; Female NHP, 0.5 mg/kg, 7 days) was 3.81 10^9/L. The Neutrophils (neutrophils; Female NHP, 0.5 mg/kg, Pre-dose) was 1.27 10^9/L, the Neutrophils (neutrophils; Male NHP, 0.005 mg/kg, 14/18 days) was 4.31 10^9/L and the Neutrophils (neutrophils; Male NHP, 0.005 mg/kg, 24 hours) was 16.44 10^9/L. The Neutrophils (neutrophils; Male NHP, 0.005 mg/kg, 3 days) was 3.74 10^9/L, the Neutrophils (neutrophils; Male NHP, 0.005 mg/kg, 7 days) was 7.28 10^9/L and the Neutrophils (neutrophils; Male NHP, 0.005 mg/kg, Pre-dose) was 1.52 10^9/L. For the same molecule, the Neutrophils (neutrophils; Male NHP, 0.05 mg/kg, 14/18 days) was 3.59 10^9/L, the Neutrophils (neutrophils; Male NHP, 0.05 mg/kg, 24 hours) was 19.92 10^9/L and the Neutrophils (neutrophils; Male NHP, 0.05 mg/kg, 3 days) was 7.49 10^9/L. The Neutrophils (neutrophils; Male NHP, 0.05 mg/kg, 7 days) was 4.13 10^9/L, the Neutrophils (neutrophils; Male NHP, 0.05 mg/kg, Pre-dose) was 13.74 10^9/L and the Neutrophils (neutrophils; Male NHP, 0.5 mg/kg, 14/18 days) was 2.58 10^9/L. The Neutrophils (neutrophils; Male NHP, 0.5 mg/kg, 24 hours) was 14.92 10^9/L, the Neutrophils (neutrophils; Male NHP, 0.5 mg/kg, 3 days) was 9.76 10^9/L and the Neutrophils (neutrophils; Male NHP, 0.5 mg/kg, 7 days) was 2.74 10^9/L. For the same molecule, the Neutrophils (neutrophils; Male NHP, 0.5 mg/kg, Pre-dose) was 1.53 10^9/L, the “neutrophils relative to pre-dose levels” value (neutrophils; NHP, all G-CSF groups) was “increase in neutrophils” and the “innate immune recognition, cytokine production (IFN-alpha and others)” value (IFN-alpha) was “induced IFN-alpha, TNF-alpha and IP10”.
